Tests used:
human IL-17A [1] = target: T1, human IL-17A (human, UniProt Q16552 20-155, limits assumed); experiment: cell-based or functional assay
rabbit TNFα = target: T2, rabbit TNFα (rabbit, UniProt P04924 80-235, limits assumed); experiment: ELISA, plate coated with rabbit TNFα, anti-Fab HRP detection
T2 sequence (looked up): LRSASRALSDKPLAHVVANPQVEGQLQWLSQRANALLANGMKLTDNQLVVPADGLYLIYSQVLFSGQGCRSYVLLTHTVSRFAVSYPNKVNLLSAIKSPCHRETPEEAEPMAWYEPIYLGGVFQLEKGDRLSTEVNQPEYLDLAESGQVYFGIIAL

cynomolgus IL-17A = target: T3, cynomolgus IL-17A (cyno, UniProt A0A2K5TTB0 24-155); experiment: SPR Biacore T200; ligand amine-coupled, antibody 1 to 25 µg/ml, Heterogeneous Ligand model
T3 construct: also called IL-17A cyno
T3 sequence (A0A2K5TTB0 entry or part of it): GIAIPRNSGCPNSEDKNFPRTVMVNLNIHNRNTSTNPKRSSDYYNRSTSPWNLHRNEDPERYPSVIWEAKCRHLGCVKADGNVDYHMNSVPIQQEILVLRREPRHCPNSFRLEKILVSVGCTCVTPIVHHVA

TNFα multta = target: T4, TNFα multta (multta (so in the source); primate), UniProt P48094 77-233); experiment: as above
T4 construct: The species is printed only as 'multta'; read as Macaca mulatta
T4 sequence (P48094 77-233 limits assumed): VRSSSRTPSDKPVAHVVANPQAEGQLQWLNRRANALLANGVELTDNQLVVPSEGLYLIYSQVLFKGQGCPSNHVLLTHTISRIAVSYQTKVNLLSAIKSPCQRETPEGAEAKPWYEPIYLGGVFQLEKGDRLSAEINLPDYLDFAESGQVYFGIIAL

human IL-17D = target: T5, human IL-17D (human, UniProt Q8TAD2 18-202, limits assumed); experiment: ELISA, plate coated with human IL-17D, anti-Fab HRP detection
T5 sequence (looked up): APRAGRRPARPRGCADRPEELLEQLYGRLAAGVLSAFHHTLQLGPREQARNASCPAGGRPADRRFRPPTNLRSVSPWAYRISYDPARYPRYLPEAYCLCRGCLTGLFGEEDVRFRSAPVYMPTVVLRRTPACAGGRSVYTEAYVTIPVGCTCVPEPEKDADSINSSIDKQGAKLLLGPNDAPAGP

human IL-17B = target: T6, human IL-17B (human, UniProt Q9UHF5 21-180); experiment: ELISA, plate coated with human IL-17B, anti-Fab HRP detection
T6 sequence (looked up): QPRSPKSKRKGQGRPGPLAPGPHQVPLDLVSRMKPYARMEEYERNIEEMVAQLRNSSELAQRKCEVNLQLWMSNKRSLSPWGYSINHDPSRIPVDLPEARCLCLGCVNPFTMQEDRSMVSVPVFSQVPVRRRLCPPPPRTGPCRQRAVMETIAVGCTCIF

human IL-17F = target: T7, human IL-17F (human, UniProt Q96PD4 31-163); experiment: BLI OctetRED96
T7 construct: also called IL-17F human
T7 sequence (looked up): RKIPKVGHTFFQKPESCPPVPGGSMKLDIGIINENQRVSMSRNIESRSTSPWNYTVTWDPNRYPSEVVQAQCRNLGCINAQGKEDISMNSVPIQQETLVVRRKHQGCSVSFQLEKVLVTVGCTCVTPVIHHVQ

human IL-17A [2] = target: T1, human IL-17A; experiment: SPR Biacore T200; ligand amine-coupled, antibody 1 to 25 µg/ml, Heterogeneous Ligand model; * below the threshold sensitivity of the device
mouse TNFα = target: T8, mouse TNFα (mouse, UniProt P06804 80-235); experiment: ELISA, plate coated with mouse TNFα, anti-Fab HRP detection
T8 sequence (looked up): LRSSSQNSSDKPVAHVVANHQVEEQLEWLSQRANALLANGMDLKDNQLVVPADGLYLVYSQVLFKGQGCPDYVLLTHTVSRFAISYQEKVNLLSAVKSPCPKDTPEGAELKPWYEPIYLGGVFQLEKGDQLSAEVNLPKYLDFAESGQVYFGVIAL

human IL-17C = target: T9, human IL-17C (human, UniProt Q9P0M4 19-197); experiment: ELISA, plate coated with human IL-17C, anti-Fab HRP detection
T9 sequence (looked up): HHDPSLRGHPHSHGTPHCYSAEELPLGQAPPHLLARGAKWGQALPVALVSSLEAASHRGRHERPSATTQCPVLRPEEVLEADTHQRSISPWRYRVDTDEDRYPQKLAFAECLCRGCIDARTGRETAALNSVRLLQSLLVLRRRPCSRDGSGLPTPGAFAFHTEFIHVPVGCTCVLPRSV

guinea pig TNFα = target: T10, guinea pig TNFα (guinea pig, UniProt P51435 80-234, limits assumed); experiment: ELISA, plate coated with guinea pig TNFα, anti-Fab HRP detection
T10 sequence (looked up): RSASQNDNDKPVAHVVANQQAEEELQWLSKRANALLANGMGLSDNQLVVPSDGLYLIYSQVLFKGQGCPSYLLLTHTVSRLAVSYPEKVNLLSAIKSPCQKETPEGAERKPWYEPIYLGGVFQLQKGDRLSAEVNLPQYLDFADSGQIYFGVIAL

human IL-17E = target: T11, human IL-17E (human, UniProt Q9H293 33-177); experiment: ELISA, plate coated with human IL-17E, anti-Fab HRP detection
T11 sequence (looked up): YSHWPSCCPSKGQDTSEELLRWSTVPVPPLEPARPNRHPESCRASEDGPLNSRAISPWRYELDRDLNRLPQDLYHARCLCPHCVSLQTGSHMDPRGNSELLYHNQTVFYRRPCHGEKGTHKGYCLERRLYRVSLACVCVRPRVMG

T1 sequence (Q16552 20-155 limits assumed): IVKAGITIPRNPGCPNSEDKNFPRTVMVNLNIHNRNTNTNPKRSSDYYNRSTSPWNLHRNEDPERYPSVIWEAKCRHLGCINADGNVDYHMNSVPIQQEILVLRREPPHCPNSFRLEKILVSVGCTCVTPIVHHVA

B1: BCD-121 tri-specific anti-IL-17A/anti-IL-17F/anti-TNFα antibody (bispecific antibody, human IgG1, kappa, L234A L235A)
heavy: not shown
light: EVQLVQSGGGLVQAGGSLRLSCAASGGTFATSPMGWLRQAPGKGTEFVAAISPSGGDRIYADSVKGRFTISRDNAGNFIYLQMNSLKPEDTAVYYCAVRRRFDGTSYYTGDYDSWGQGTLVTVSSGGGSGGGSEGAGSDIQMTQSPSSLSASVGDRVTITCKASQNVGTNVAWYQQKPGKAPKALIYSASFLYSGVPYRFSGSGSGTDFTLTISSLQPEDFATYYCQQYNIFPLTFGQGTKVEIKRTVAAPSVFIFPPSDEQLKSGTASVVCLLNNFYPREAKVQWKVDNALQSGNSQESVTEQDSKDSTYSLSSTLTLSKADYEKHKVYACEVTHQGLSSPVTKSFNRGEC
notes: also called Mab12; VHH-IgG1 (LALA)
In the case of B1, the “IC50, IL-17A and TNFα induced IL-6 production, HT1080 cells” value (human IL-17A [1]) is reported as 0.02 µg/mL, the “IC50, IL-17A-dependent IL-6 production, HT1080 cells” value (human IL-17A [1]) is reported as 0.0035 µg/mL and the binding result (rabbit TNFα) is reported as “no binding (tested: 2 ng/ml)”. For the same binder, the Kd (cynomolgus IL-17A) was ~1 pM, the Kd (TNFα multta) was ~1 pM and the binding result (human IL-17D) was “no binding (tested: 0,5 ng/ml)”. The binding result (human IL-17B) was “no binding (tested: 0,5 ng/ml)”, the Kd (human IL-17F) was ~4000 pM and the Kd (human IL-17A [2]) was < 1 pM. B1: no binding (tested: 2 ng/ml) (mouse TNFα); no binding (tested: 0,5 ng/ml) (human IL-17C); no binding (tested: 2 ng/ml) (guinea pig TNFα). B1: no binding (tested: 0,5 ng/ml) (human IL-17E).

From patent US20210332120A1 (JOINT STOCK COMPANY BIOCAD, published 2021)
